Data on one molecule can be found in US20250101074A1 (Affibody, published 2025).

Experiment in all cases: SPR (Biacore), PEP07843 immobilized, analyte protein injected
One test has as its target T1, human IL-17A (human, UniProt Q16552 20-155).
T1 construct: Peprotech cat. no; 200-17; homodimeric cytokine; biotinylated with Sulfo-NHS-LC-Biotin for the ELISAs; also called hIL-17A; rhIL-17A
T1 sequence: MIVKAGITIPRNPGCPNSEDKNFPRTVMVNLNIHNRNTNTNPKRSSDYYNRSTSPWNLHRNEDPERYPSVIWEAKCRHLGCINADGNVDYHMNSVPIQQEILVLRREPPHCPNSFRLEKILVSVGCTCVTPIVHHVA
The procedure: (§1) In the binding experiment, HBS-EP was used as running buffer and the flow rate was 30 μl/min. […] The analytes, i.e. the panels of 24 or 12 different proteins, were each diluted in HBS-EP or HBS-EP supplemented with 500 mM NaCl to final concentrations of from 0.4 to 250 nM and injected for 5 min. […] The results were analyzed using the BiaEvaluation software.
(§2) The Z-ABD-Z polypeptides were injected over surfaces containing HSA followed by injection of the analyte proteins.

Another test concerns the target hIL-6 (human, UniProt P05231 29-212). The procedure: as §1, §2
The target of test [1] is T2, Haptoglobin Human (seems to be beta chain) (human, UniProt P00738 162-406, limits assumed).
T2 sequence (looked up): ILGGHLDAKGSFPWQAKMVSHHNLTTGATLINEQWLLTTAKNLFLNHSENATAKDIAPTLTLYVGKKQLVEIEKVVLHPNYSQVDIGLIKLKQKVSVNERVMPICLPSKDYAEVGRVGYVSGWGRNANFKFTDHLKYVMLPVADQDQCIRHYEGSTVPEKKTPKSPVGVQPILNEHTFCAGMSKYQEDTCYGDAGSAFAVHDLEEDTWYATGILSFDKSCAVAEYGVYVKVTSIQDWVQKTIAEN
The procedure: as §1, §2

For a further test, the target named is T3, Human a-2 macroglobulin (human, UniProt P01023 24-1474).
T3 sequence (looked up): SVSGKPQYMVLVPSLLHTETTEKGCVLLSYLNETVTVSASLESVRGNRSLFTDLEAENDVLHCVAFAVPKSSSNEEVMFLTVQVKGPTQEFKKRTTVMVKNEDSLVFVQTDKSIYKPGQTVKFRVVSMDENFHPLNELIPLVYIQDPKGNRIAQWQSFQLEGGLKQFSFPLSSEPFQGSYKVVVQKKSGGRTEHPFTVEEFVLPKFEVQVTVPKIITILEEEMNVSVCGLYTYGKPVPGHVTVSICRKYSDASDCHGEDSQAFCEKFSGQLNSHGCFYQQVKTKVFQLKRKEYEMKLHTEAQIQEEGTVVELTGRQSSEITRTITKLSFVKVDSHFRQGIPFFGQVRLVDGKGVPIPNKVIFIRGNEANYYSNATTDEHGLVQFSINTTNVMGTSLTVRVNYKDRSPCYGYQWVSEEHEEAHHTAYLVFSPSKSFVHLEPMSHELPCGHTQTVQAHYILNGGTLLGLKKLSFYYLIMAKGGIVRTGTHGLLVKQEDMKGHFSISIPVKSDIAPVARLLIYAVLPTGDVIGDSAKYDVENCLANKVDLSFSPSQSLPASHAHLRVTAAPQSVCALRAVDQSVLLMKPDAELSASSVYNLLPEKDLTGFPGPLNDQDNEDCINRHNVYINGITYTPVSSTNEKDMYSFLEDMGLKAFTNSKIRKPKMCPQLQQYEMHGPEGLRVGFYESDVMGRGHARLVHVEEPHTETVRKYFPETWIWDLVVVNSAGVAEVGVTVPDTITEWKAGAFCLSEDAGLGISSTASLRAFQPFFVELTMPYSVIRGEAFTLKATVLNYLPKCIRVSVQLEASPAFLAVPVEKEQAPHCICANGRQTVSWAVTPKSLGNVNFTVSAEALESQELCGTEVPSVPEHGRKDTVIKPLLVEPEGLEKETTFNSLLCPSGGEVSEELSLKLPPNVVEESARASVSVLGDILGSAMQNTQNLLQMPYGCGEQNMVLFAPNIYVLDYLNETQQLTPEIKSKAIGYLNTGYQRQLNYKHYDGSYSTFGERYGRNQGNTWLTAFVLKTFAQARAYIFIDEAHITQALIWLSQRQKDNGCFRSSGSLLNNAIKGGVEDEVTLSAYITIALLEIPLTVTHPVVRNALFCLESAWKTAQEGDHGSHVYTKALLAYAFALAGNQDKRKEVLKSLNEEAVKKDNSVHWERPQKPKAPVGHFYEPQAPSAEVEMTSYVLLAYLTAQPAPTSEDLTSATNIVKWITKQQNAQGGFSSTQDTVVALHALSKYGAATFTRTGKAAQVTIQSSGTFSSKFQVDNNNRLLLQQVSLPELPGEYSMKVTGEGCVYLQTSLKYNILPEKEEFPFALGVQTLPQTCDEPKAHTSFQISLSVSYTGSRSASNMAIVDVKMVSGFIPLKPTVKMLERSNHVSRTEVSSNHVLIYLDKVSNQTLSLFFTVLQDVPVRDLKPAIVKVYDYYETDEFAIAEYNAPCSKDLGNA
The procedure:
as §1, §2

In the next test the target is holo-Transferrin (UniProt P02787 20-698). The procedure:
as §1, §2

Test [2] concerns the target T4, human IL-17A/F heterodimer (human, UniProt Q16552 20-155; Q96PD4 31-163, limits assumed).
T4 construct: bought; also called hIL-17A/F
T4 sequence (looked up) 1: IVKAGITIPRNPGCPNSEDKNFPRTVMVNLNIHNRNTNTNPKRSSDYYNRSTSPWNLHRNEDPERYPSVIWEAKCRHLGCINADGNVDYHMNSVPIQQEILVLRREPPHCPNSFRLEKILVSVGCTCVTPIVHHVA
T4 sequence (looked up) 2: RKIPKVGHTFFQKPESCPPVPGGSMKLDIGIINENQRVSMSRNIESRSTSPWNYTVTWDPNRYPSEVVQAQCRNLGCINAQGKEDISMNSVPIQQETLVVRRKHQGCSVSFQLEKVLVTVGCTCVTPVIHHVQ
The procedure: as §1, §2

The target of a further test is T5, hIL-17C (human, UniProt Q9P0M4 19-197).
T5 sequence (looked up): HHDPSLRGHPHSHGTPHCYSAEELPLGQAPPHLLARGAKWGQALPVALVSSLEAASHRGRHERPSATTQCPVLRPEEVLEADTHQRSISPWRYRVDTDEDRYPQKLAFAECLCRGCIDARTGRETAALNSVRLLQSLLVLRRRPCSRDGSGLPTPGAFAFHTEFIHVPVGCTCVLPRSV
The procedure:
as §1, §2

Sequence of holo-Transferrin (P02787 20-698 limits assumed): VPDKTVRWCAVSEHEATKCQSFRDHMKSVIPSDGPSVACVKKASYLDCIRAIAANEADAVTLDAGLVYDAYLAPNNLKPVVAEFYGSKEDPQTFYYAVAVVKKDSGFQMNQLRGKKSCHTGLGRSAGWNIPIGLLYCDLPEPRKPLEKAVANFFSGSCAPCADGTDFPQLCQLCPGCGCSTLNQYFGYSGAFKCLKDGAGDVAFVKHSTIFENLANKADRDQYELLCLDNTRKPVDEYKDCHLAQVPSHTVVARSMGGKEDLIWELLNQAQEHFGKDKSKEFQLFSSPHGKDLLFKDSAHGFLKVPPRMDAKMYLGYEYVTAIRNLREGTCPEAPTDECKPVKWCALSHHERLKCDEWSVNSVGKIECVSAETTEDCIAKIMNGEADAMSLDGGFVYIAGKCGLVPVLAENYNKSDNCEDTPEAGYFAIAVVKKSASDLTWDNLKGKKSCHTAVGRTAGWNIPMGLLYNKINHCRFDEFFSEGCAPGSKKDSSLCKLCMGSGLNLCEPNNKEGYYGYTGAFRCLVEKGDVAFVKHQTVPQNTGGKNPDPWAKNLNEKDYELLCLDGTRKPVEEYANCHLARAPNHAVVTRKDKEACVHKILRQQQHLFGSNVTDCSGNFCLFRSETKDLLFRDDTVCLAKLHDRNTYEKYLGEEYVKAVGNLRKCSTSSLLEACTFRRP

B1: ABD variant PEP07843 (designed binder)
chain: GSSLAEAKEAANAELDSYGVSDFYKRLIDKAKTVEGVEALKDAILAALP
As for B1, the binding result is on record as “no binding (tested: 2, 10, 50 nM)” in the test with human IL-17A; “no binding (tested: 50, 250 nM)” with hIL-6; “no binding (tested: 50, 250 nM)” in test [1]; “no binding (tested: 50, 250 nM)” with Human a-2 macroglobulin; “no binding (tested: 50, 250 nM)” with holo-Transferrin; “no binding (tested: 50, 250 nM)” in test [2]. Besides, the binding result in the test with hIL-17C is “no binding (tested: 50, 250 nM)”.
